Positions count from the first letter of the chain named. Each block holds one binder with its values, some of them ahead of it.
Experiments:
[1] = molecular target: hIL5 (human, UniProt P05113 20-134); test: ELISA
[2] = molecular target: hTSLP (human, UniProt Q969D9 29-159); test: ELISA
[3] = molecular target: T1, human DLL3 on cells (human, UniProt Q9NYJ7 27-618); test: flow cytometry, SHP77 cells
T1 construct: Endogenous on H1184 and SHP77; Cell line is named under assay; also called H1184; DLL3/H82
T1 sequence: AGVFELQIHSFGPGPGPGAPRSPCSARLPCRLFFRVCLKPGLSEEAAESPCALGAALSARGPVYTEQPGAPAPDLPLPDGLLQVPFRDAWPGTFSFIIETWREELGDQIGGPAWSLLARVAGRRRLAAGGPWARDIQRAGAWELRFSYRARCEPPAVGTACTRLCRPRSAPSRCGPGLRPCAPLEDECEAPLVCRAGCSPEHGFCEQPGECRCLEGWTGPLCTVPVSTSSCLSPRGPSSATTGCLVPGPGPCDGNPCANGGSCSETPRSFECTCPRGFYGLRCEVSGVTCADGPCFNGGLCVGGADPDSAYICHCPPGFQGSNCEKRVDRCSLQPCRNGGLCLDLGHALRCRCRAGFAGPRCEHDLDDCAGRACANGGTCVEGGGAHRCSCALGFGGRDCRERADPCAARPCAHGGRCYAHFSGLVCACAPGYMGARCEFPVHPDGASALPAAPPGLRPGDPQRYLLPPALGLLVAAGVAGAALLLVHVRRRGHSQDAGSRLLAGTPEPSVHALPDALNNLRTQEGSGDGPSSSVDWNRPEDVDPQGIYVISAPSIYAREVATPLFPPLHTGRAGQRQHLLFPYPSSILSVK
Protocol: (§1) The plates were centrifuged at 300 g for 5 min, and the supernatant was removed. Different concentrations of test antibodies were added at 100 μL/well. The plates were incubated in the dark in a refrigerator at 4° C. for 1 h. After 3 centrifugal washes at 300 g, working concentrations of APC anti-human IgG Fc (BioLegend, 410712) or PE F(ab′)2-goat anti-human IgG (invitrogen, H10104) were added. The plates were incubated in the dark in a refrigerator at 4° C. for 40 min. After 3 centrifugal washes at 300 g, the geometric mean fluorescence intensity was measured on an Invitrogen flow cytometer, and the EC50 values for the binding of the antibodies to DLL3-expressing cells were calculated.

[4] = molecular target: T1, human DLL3 on cells; test: flow cytometry, DLL3/H82 cells; design: key to Emax: geometric mean fluorescence intensity (flow cytometry)
Protocol: as §1

[5] = molecular target: T2, human DLL3 (ACRO, DLL3-H52H4) (human, UniProt Q9NYJ7 27-492); test: SPR Biacore 8K, Ab captured on Protein A
T2 construct: Bought
T2 sequence: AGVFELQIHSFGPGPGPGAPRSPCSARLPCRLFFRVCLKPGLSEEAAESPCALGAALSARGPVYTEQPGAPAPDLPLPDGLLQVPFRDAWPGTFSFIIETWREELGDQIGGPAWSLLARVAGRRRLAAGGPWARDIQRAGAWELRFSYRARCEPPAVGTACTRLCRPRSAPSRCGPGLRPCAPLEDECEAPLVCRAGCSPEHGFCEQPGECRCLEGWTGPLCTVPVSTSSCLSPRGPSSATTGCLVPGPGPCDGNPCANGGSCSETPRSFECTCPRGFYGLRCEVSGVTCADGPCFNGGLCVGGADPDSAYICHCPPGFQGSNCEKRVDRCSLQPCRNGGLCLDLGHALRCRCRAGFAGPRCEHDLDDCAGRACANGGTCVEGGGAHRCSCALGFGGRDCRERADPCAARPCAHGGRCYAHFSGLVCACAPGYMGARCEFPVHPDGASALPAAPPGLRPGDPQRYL
In short: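 Antibodies captured on a Protein A chip for 18 s; DLL3 or CD3D&3E antigen flowed 180 s, then 600 s dissociation, with real-time detection. Regeneration used 10 mM glycine-HCl pH 1.5 between cycles. Kinetics were obtained by 1:1 model fitting.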

B2: HJ-7 (bispecific antibody)
chain 1: not shown
chain 2: DIQMTQSPSSVSASVGDRVTITCRASQDIANYLSWYQQKPGKSPKLLIYGTSNLEVGVPSRFSGSRSGTDFTLTISSLQPEDFATYYCLQDKEFPRTFGGGTKVEIKGGGGSSGAPRFLTRPKASVVSVGKDATLSCQIVGNPFPQVSWEKDKQPVTAGVRFRLAQDGDLYRLKILDLQLSDSGQYVCRARNAHGEAFACLGLQVDAEA
chain 3: EVQLVQSGAEVKKPGSSVKVSCKASGYTFSNYLIEWVRQAPGQGLEWIGVIDPGVGDTNYNENFKGRATLTADKSTSTAYIELSSLRSEDTAVYYCAREDNTGTAFDYWGQGTTVTVSSASTKGPSVFPLAPSSKSTSGGTAALGCLVKDYFPEPVTVSWNSGALTSGVHTFPAVLQSSGLYSLSSVVTVPSSSLGTQTYICNVNHKPSNTKVDKKVEPKSCDKTHTCPPCPAPEAAGGPSVFLFPPKPKDTLMISRTPEVTCVVVDVSHEDPEVKFNWYVDGVEVHNAKTKPREEQYNSTYRVVSVLTVLHQDWLNGKEYKCKVSNKALPAPIEKTISKAKGQPREPQVCTLPPSREEMTKNQVSLSCAVKGFYPSDIAVEWESNGQPENNYKTTPPVLDSDGSFFLVSKLTVDKSRWQQGNVFSCSVMHEALHNHYTQKSLSLSPGK
chain 4: SIVMTQTPLSLSVTPGQPASISCKASQSVSSDVTWYLQKPGQSPQLLIYYVSEHYTGVPDRFSGSGYGTDFTLKISRVEAEDVGVYYCQQHHRFPLTFGQGTKLEIKRTVAAPSVFIFPPSDEQLKSGTASVVCLLNNFYPREAKVQWKVDNALQSGNSQESVTEQDSKDSTYSLSSTLTLSKADYEKHKVYACEVTHQGLSSPVTKSFNRGEC
- EC50 [1]: 17.7 nM
- EC50 [2]: 2.18 nM

B4: HJ-6 (bispecific antibody)
chain 1: not shown
chain 2: B2 chain 2 with R121C, C137S, C188S
chain 3: B2 chain 3
chain 4: B2 chain 4
- EC50 [1]: 37 nM
- EC50 [2]: 2.88 nM

B5: hu30L1H5 (antibody, human IgG1, kappa, V domains shown)
VH: EVRLVQSGAEVKKPGASVKVSCKASGYTFTDYYMNWVRQAPGQSLEWMGIINPYTGDTSYNQKFRGRVTLTVDKSASTAYMELSSLRSEDTAVYYCARYHYGPHLEGYFDVWGQGTTVTVSS
VL: DIVMTQSPDSLAVSLGERATINCKASENVGYVSWYQQKPGQPPKLLIYGASNRYTGVPDRFSGSGSGTDFTLTISSLQAEDVAVYYCGQSYSYPLTFGQGTKLEIKR
- EC50 [3]: 6.45 nM
- Emax [3]: 1540
- EC50 [4]: 0.88 nM
- Emax [4]: 6800
- Kd [5]: 0.952 nM
- koff [5]: 0.00117 s⁻¹
- kon [5]: 1.23e+06 M⁻¹ s⁻¹

B6: hu30L5H9 (antibody, human IgG1, kappa, V domains shown)
VH: B5 VH with M48I, V68A
VL: DIQMTQSPSSLSASVGDRVTITCKASENVGYVSWYQQKPGKSPKLLIYGASNRYTGVPDRFSGSGSGTDFTLTISSLQPEDFATYYCGQSYSYPLTFGSGTKLEIKR
- EC50 [3]: 9.6 nM
- Emax [3]: 1560
- Kd [5]: 2.48 nM
- koff [5]: 0.000989 s⁻¹
- kon [5]: 399000 M⁻¹ s⁻¹

Next, values leading:

- EC50 [1]: 17.4 nM
- EC50 [2]: 3.23 nM
B1: HJ-3 (bispecific antibody)
chain 1: not shown
chain 2: B2 chain 2 with K123L, S125F, C137S, F144T, V160A, C188S, H194I
chain 3: EVQLVQSGAEVKKPGSSVKVSCKASGYTFSNYLIEWVRQAPGQGLEWIGVIDPGVGDTNYNENFKGRATLTADKSTSTAYIELSSLRSEDTAVYYCAREDNTGTAFDYWGQGTTVTVSSASTKGPSVFPLAPSSKSTSGGTAALGCLVKDYFPEPVTVSWNSGALTSGVHTFPAVLQSSGLYSLSSVVTVPSSSLGTQTYICNVNHKPSNTKVDKKVEPKSCDKTHTCPPCPAPEAAGGPSVFLFPPKPKDTLMISRTPEVTCVVVDVSHEDPEVKFNWYVDGVEVHNAKTKPREEQYNSTYRVVSVLTVLHQDWLNGKEYKCKVSNKALPAPIEKTISKAKGQPREPQVCTLPPSREEMTKNQVSLSCAVKGFYPSDIAVEWESNGQPENNYKTTPPVLDSDGSFFLVSKLTVDKSRWQQGNVFSCSVMHEALHNHYTQKSLSLSPGKDYKDDDDK
chain 4: B2 chain 4

- EC50 [1]: 16 nM
- EC50 [2]: 2.64 nM
B3: HJ-5 (bispecific antibody)
chain 1: not shown
chain 2: B2 chain 2 with C137S, C188S
chain 3: B2 chain 3
chain 4: B2 chain 4
